# According to PMC4958592 (Molecular cell, 2016):
# B1: methyltransferase domain of Mettl14 (MTD14, residues 111-456) (domain or fragment, human, UniProt Q9HCE5 111-456, looked up)
# chain: QSLNPHNDYCQHFVDTGHRPQNFIRDVGLADRFEEYPKLRELIRLKDELIAKSNTPPMYLQADIEAFDIRELTPKFDVILLEPPLEEYYRETGITANEKCWTWDDIMKLEIDEIAAPRSFIFLWCGSGEGLDLGRVCLRKWGYRRCEDICWIKTNKNNPGKTKTLDPKAVFQRTKEHCLMGIKGTVKRSTDGDFIHANVDIDLIITEEPEIGNIEKPVEIFHIIEHFCLGRRRLHLFGRDSTIRPGWLTVGPTLTNSNYNAETYASYFSAPNSYLTGCTEEIERLRPKSPPPKSKSDRGGGAPRGGGRGGTSAGRGRERNRSNFRGERGGFRGGRGGAHRGGFPPR
# Biological target: methyltransferase domain of Mettl3 (MTD3, residues 357-580) (human, UniProt Q86U44 357-580)
# Sequence (Q86U44 357-580): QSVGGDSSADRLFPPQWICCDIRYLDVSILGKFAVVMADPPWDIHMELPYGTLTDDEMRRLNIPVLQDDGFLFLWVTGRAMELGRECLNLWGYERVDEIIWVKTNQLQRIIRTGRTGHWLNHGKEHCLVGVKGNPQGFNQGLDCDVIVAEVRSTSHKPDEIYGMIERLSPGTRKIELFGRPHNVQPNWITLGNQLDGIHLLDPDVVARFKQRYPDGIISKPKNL
# Assay: SEC-MALS
binder,measurement,value
B1,stoichiometry N,1
